Source: the supplement of paper PMC7877785
± gives the uncertainty stated by the source.

Assay: self-splicing fitness, log relative to wild type (ln ratio); higher = more splicing; Tetrahymena group I intron in knt gene, E. coli kanamycin selection, DiMSum; sequences stand for … in CUCUCU…GGAGGGAAAAGUUAUCAGGCAUGCACCUGGUAGCUAGUCUUUAAACCAAUAGAUUGCAUCGGUUUAAAAGGCAAGACCGUCAAAUUGCGGGAAAGGGGUCAACAGCCGUUCAGUACCAAGUCUCAGGGGAAACUUUGAGAUGGCCUUGCAAAGGGUAUGGUAAUAAGCUGACGGACAUGGUCCUAACCACGCAGCCAAGUCCUAAGUCAACAGAUCUUCUGUUGAUAUGGAUGCAGUUCACAGACUAAAUGUCGGUCGGGGAAGAUGUAUUCUUCUCAUAAGAUAUAGUCGGACCUCUCCUUAAUGGGAGCUAGCGGAUGAAGUGAUGCAACACUGGAGCCGCUGGGAACUAAUUUGUAUGCGAAAGUAUAUUGAUUAGUUUUGGAGUACUCGUGGUCG
Method in brief: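 Colonies from six replicate transformations of E. coli BL21(DE3) were pooled and amplicon-sequenced on an Illumina HiSeq 2500. The library placed an intron with all eight P1ex-region nucleotides randomised inside the knt kanamycin-resistance gene on pET-22b(+), and cells grew overnight at 37°C or 30°C on LB agar with or without 25 μg/mL kanamycin (plus 100 μg/mL carbenicillin, 50 μM IPTG, 0.2% rhamnose). Fitness is the DiMSum error-weighted combination of wild-type-normalised replicate fold changes, kanamycin versus none.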

Sequence | self-splicing fitness (ln) (30 °C) | self-splicing fitness (ln) (37 °C)
AUUAAGCAAUAUUACGAGUU | -2.42 ± 0.17 | -1.27 ± 0.22
CCCCAGCAAUAUUACGAUUA | -3.4 ± 0.2 | -2.87 ± 0.22
GUACAGCAAUAUUACGGCCA | -0.539 ± 0.17 | -1.13 ± 0.17
ACGGAGCAAUAUUACGUCCU | -1.85 ± 0.13 | -1.27 ± 0.15
GAAAAGCAAUAUUACGAAUG | -1.89 ± 0.07 | -1.19 ± 0.08
AGACAGCAAUAUUACGUGUG | -2 ± 0.063 | -1.44 ± 0.072
CCACAGCAAUAUUACGACAU | -3.702 ± 0.019 | -2.84 ± 0.037
UCAAAGCAAUAUUACGAGCA | -1.07 ± 0.15 | -0.556 ± 0.15
GGGGAGCAAUAUUACGACAG | -3.9 ± 0.39 | -2.33 ± 0.39
GCACAGCAAUAUUACGGGGC | -3.43 ± 0.16 | -2.62 ± 0.18
ACGAAGCAAUAUUACGCGGU | -3.65 ± 0.18 | -1.48 ± 0.1
GGCAAGCAAUAUUACGUGAG | -1.21 ± 0.059 | -0.0615 ± 0.08
AGCCAGCAAUAUUACGCGCU | -3.07 ± 0.24 | -2.15 ± 0.25
GACAAGCAAUAUUACGUUAU | -3.17 ± 0.11 | -1.5 ± 0.095
CGAAAGCAAUAUUACGCUCA | -0.156 ± 0.094 | 0.0149 ± 0.13
CAACAGCAAUAUUACGCUUC | -3.83 ± 0.24 | -2.18 ± 0.2
GUCUAGCAAUAUUACGUUGC | -2.55 ± 0.42 | -0.754 ± 0.41
AUAUAGCAAUAUUACGCACC | -0.862 ± 0.2 | -0.94 ± 0.18
GGAGAGCAAUAUUACGUGGA |  | -3.26 ± 0.32
GGACAGCAAUAUUACGAAUA | -1.69 ± 0.13 | -0.937 ± 0.13
CCAUAGCAAUAUUACGCUUG | -2.3 ± 0.093 | -1.35 ± 0.091
CGUAAGCAAUAUUACGGCCG | -0.668 ± 0.11 | 0.0976 ± 0.13
UCUAAGCAAUAUUACGCUUC | -3.47 ± 0.3 | -1.9 ± 0.31
CGCAAGCAAUAUUACGAACC | -2.01 ± 0.19 | -0.722 ± 0.19
GAUGAGCAAUAUUACGACAC | -1.25 ± 0.15 | -0.309 ± 0.16

Sequence | self-splicing fitness (ln) (30 °C) | self-splicing fitness (ln) (37 °C)
CCCAAGCAAUAUUACGCAGC | -3.93 ± 0.29 | -3.49 ± 0.34
UGAAAGCAAUAUUACGCUUG | -1.8 ± 0.11 | -1.32 ± 0.13
AAAGAGCAAUAUUACGCCUA | -2.22 ± 0.21 | -1.81 ± 0.25
CUUCAGCAAUAUUACGUACA |  | -2.14 ± 0.5
GACUAGCAAUAUUACGUAGA | -0.815 ± 0.077 | -1.17 ± 0.097
CGGAAGCAAUAUUACGGAUU | -4.05 ± 0.2 | -2.36 ± 0.13
AAGCAGCAAUAUUACGAAGA | -3.03 ± 0.19 | -1.44 ± 0.097
AAUAAGCAAUAUUACGGCGA | -0.134 ± 0.079 | -0.274 ± 0.1
GAGGAGCAAUAUUACGUUAC | -3.66 ± 0.25 | -3.09 ± 0.4
GACUAGCAAUAUUACGCGUC | -3.14 ± 0.16 | -2.78 ± 0.23
CCAGAGCAAUAUUACGGGUU | -3.1 ± 0.23 | -2.63 ± 0.26
UUAGAGCAAUAUUACGCUCU | -3.64 ± 0.47 | -1.85 ± 0.3
GGCAAGCAAUAUUACGUCGU | -0.68 ± 0.097 | 0.0841 ± 0.11
UCGAAGCAAUAUUACGAUCU | -2.67 ± 0.21 | -2.44 ± 0.27
UGAGAGCAAUAUUACGAUAU |  | -2.8 ± 0.44
UCUCAGCAAUAUUACGCCGA |  | -0.855 ± 0.18
ACAUAGCAAUAUUACGCGAA | -3.3 ± 0.13 | -1.03 ± 0.098
AGGCAGCAAUAUUACGGGAA | -3.59 ± 0.23 | -2.42 ± 0.18
GGUUAGCAAUAUUACGACCG | -0.946 ± 0.25 | 1.43 ± 0.36
ACUAAGCAAUAUUACGAGAU | -3 ± 0.15 | -2.45 ± 0.2
CAUAAGCAAUAUUACGGAUC |  | -1.38 ± 0.23
UACGAGCAAUAUUACGAGCU | -2.28 ± 0.33 | 
GUCGAGCAAUAUUACGUGUU | -4.22 ± 0.28 | -2.09 ± 0.25
UAUAAGCAAUAUUACGAUUA | -0.327 ± 0.073 | 0.291 ± 0.098
AGUCAGCAAUAUUACGGUCC | -0.805 ± 0.096 | 0.201 ± 0.13

Sequence | self-splicing fitness (ln) (30 °C) | self-splicing fitness (ln) (37 °C)
CACCAGCAAUAUUACGGUUA | -0.251 ± 0.068 | -0.0422 ± 0.09
AAAGAGCAAUAUUACGUUCA | -1.03 ± 0.094 | -0.639 ± 0.097
CGUCAGCAAUAUUACGCUGA | -2.3 ± 0.3 | -1.89 ± 0.33
ACCCAGCAAUAUUACGCGAC | -2.48 ± 0.12 | -1.22 ± 0.13
CGUUAGCAAUAUUACGCAAG | -1.97 ± 0.13 | -1.18 ± 0.14
GGGGAGCAAUAUUACGGCUG | -2.72 ± 0.15 | -1.09 ± 0.22
CAACAGCAAUAUUACGUUGC | -4.78 ± 0.36 | -1.54 ± 0.14
CCCUAGCAAUAUUACGUAGA | -4.06 ± 0.26 | -3.05 ± 0.26
CACAAGCAAUAUUACGGGGG | -3.12 ± 0.11 | -2.1 ± 0.11
CAGAAGCAAUAUUACGUAGG | -0.872 ± 0.06 | 0.297 ± 0.1
GACGAGCAAUAUUACGGACA | -1.57 ± 0.43 | -0.484 ± 0.14
CACGAGCAAUAUUACGAUAA | -3.63 ± 0.32 | -2.32 ± 0.28
UGAAAGCAAUAUUACGUUGC | -3.54 ± 0.19 | -2.58 ± 0.21
CUCCAGCAAUAUUACGGGAA | -1.92 ± 0.086 | -0.479 ± 0.093
CAGUAGCAAUAUUACGGUAC | -5 ± 0.45 | -3 ± 0.27
CAUUAGCAAUAUUACGCGUG | -3.16 ± 0.15 | -2.89 ± 0.24
UCGCAGCAAUAUUACGUGCA | -2.17 ± 0.074 | -0.836 ± 0.071
UAAGAGCAAUAUUACGACUG | -2 ± 0.14 | -0.767 ± 0.15
GGCAAGCAAUAUUACGACCA | -1.23 ± 0.12 | -0.321 ± 0.13
UGGUAGCAAUAUUACGAAUU | -1.86 ± 0.36 | -2.22 ± 0.32
CUAGAGCAAUAUUACGCGGG | -2.91 ± 0.22 | 0.316 ± 0.14
GAACAGCAAUAUUACGUGGA | -2.32 ± 0.1 | -1.95 ± 0.094
UUGGAGCAAUAUUACGAUUU | -3.2 ± 0.21 | -2.86 ± 0.29
AAUUAGCAAUAUUACGGCCA | -0.657 ± 0.14 | 0.518 ± 0.17
AGCCAGCAAUAUUACGACCA | -1.61 ± 0.14 | -2.81 ± 0.3

Sequence | self-splicing fitness (ln) (30 °C) | self-splicing fitness (ln) (37 °C)
CGACAGCAAUAUUACGACUC | -2.83 ± 0.18 | -1.18 ± 0.15
CGGUAGCAAUAUUACGCUGG | -0.433 ± 0.13 | -0.681 ± 0.15
AUGUAGCAAUAUUACGCGGG | -4.31 ± 0.33 | -2.37 ± 0.2
GAAGAGCAAUAUUACGGGUG | -3.28 ± 0.15 | -2.01 ± 0.17
AGACAGCAAUAUUACGCAUC | -2.73 ± 0.11 | -2.18 ± 0.16
GUAAAGCAAUAUUACGUCUG | -1.56 ± 0.11 | 0.0989 ± 0.11
GCACAGCAAUAUUACGCACC | -0.769 ± 0.13 | 0.129 ± 0.15
GGACAGCAAUAUUACGCUAA | -0.66 ± 0.1 | -0.339 ± 0.12
GGCAAGCAAUAUUACGUGUA | -0.7 ± 0.049 | -0.0721 ± 0.057
GCGGAGCAAUAUUACGGACG | -3.15 ± 0.47 | -2.33 ± 0.42
GUACAGCAAUAUUACGGCUU | -0.512 ± 0.08 | 0.22 ± 0.09
CCACAGCAAUAUUACGGGCG | -0.605 ± 0.065 | 0.193 ± 0.087
GGACAGCAAUAUUACGUGAC | -1.07 ± 0.081 | -1.23 ± 0.13
UGCUAGCAAUAUUACGCCCA | 0.275 ± 0.1 | 0.384 ± 0.13
ACCGAGCAAUAUUACGUCUA | -3.65 ± 0.28 | -2.86 ± 0.17
GCGGAGCAAUAUUACGGGCU | -2.38 ± 0.36 | 
CAACAGCAAUAUUACGUCAC | -3.96 ± 0.24 | -2.26 ± 0.18
UUCAAGCAAUAUUACGCGAA | -3.01 ± 0.18 | -1.47 ± 0.13
GCUCAGCAAUAUUACGCCCG |  | -0.341 ± 0.44
UAUUAGCAAUAUUACGAAGG | -2.18 ± 0.22 | -0.523 ± 0.17
UUGCAGCAAUAUUACGCCUA | -0.384 ± 0.084 | 0.346 ± 0.11
AGCGAGCAAUAUUACGGCGA | -0.915 ± 0.22 | -0.377 ± 0.27
